Measured values as given in paper PMC3543382, “Elements of Transcriptional Machinery Are Compatible among Plants and Mammals” (PLoS ONE, 2013).

Target: RelA-ECFP (human, UniProt Q04206 1-551)
Assay: cell-based or functional assay

Sequence of RelA-ECFP (Q04206 whole entry): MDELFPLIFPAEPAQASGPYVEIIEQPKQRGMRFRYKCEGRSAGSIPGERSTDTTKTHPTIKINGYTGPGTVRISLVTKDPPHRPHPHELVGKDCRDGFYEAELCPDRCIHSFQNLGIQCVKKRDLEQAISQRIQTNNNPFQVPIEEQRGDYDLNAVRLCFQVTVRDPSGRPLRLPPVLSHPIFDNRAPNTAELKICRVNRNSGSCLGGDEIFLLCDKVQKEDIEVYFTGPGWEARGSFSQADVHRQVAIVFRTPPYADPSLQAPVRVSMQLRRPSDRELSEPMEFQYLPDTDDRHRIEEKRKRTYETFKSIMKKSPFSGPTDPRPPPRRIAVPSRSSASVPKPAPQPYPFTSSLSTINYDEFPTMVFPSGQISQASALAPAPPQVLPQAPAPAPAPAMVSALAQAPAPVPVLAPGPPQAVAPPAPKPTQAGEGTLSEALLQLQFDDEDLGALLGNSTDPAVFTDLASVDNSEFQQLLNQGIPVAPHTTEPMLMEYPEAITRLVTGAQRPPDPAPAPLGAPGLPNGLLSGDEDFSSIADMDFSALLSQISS

B1: IκB-EYFP (natural protein, human, UniProt P25963 1-317, looked up)
chain: MFQAAERPQEWAMEGPRDGLKKERLLDDRHDSGLDSMKDEEYEQMVKELQEIRLEPQEVPRGSEPWKQQLTEDGDSFLHLAIIHEEKALTMEVIRQVKGDLAFLNFQNNLQQTPLHLAVITNQPEIAEALLGAGCDPELRDFRGNTPLHLACEQGCLASVGVLTQSCTTPHLHSILKATNYNGHTCLHLASIHGYLGIVELLVSLGADVNAQEPCNGRTALHLAVDLQNPDLVSLLLKCGADVNRVTYQGYSPYQLTWGRPSTRIQQQLGQLTLENLQMLPESEDEESYDTESEFTEFTEDELPYDDCVFGGQRLTL
In the case of B1, the “transactivation of the IκBα-promoter EYFP reporter by the p50/RelA heterodimer in the presence of IκB (untagged proteins) in Arabidopsis protoplasts, EYFP/ECFP emission relative to the basal activity” value is reported as 3.5 fold.
